Data reported in patent US20150005474A1.

Tests used:
[1] = target: TR5, non-glycosylated MUC1 peptide […]n with n=5; assay: ELISA, 10 µg/ml antibody; reference is TR1 (SEQ ID NO: 72)
[2] = target: glycosylated 30mer MUC1 peptide; assay: ELISA of Example 5.1; reference is the non-glycosylated 30mer
[3] = target: glycosylated 30mer MUC1 peptide; assay: ELISA, 10 µg/ml antibody; reference is the non-glycosylated 30mer

glycosylated 30mer MUC1 peptide, sequence (peptide, as listed by the source): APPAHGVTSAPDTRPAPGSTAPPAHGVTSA
TR5, non-glycosylated MUC1 peptide […]n with n=5, sequence (peptide, as listed by the source): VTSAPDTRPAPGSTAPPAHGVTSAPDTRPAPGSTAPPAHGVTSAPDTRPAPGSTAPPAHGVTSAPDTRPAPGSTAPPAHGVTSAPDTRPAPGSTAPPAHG

Substance | factor (ratio of the signal with TR5 peptide to that with TR1 peptide) [1] | factor (glycosylated against non-glycosylated peptide) [2] | factor (ratio of glycosylated/non-glycosylated peptide) [3]
SM3 (antibody) | 2.1 | 1.5 | < 1.2
C595 (antibody) | 1.1 | – | < 1.2
HMFG-1 (antibody) | – | – | < 1.2
